Measurements reported in patent US20240166765A1 (ICONIC THERAPEUTICS, published 2024).

What was measured:
Relipidated TF = Relipidated TF (UniProt P13726 33-295, limits assumed); test: cell-based or functional assay
[1] = molecular target: Relipidated TF (Tissue Factor) (UniProt P13726 33-295, limits assumed); test: cell-based or functional assay

Binder | % Peak IIa, TGA […] min pre-incubation, 10 nM Ab (Relipidated TF) [%] | % Peak IIa, TGA […] min pre-incubation, 50 nM Ab (Relipidated TF) [%] | % Peak IIa, TGA […] min pre-incubation, 100 nM Ab (Relipidated TF) [%] | % ETP, Ab 10 nM [1] [%] | % Peak IIa, Ab 10 nM [1] [%] | % Peak IIa, Ab 50 nM [1] [%] | % Peak IIa, Ab 100 nM [1] [%] | % ttPeak, Ab 10 nM [1] [%] | % ttPeak, Ab 50 nM [1] [%] | % ttPeak, Ab 100 nM [1] [%] | ETP [nM · min], Ab 10 nM [1] [nM·min] | Lag Time [min], Ab 10 nM [1] [min] | Lag Time [min], Ab 50 nM [1] [min] | Lag Time [min], Ab 100 nM [1] [min] | Peak IIa [nM], Ab 10 nM [1] [nM] | Peak IIa [nM], Ab 50 nM [1] [nM] | Peak IIa [nM], Ab 100 nM [1] [nM] | ttPeak [min], Ab 10 nM [1] [min] | ttPeak [min], Ab 50 nM [1] [min] | ttPeak [min], Ab 100 nM [1] [min] | also measured
29E (antibody, human IgG1, V domains shown) VH: QVQLVESGGGVVQPGRSLRLSCAASGFTFRSYGMHWVRQAPGKGLEWVAVITYDGINKYYADSVEGRFTISRDNSKNTLYLQMNSLRAEDTAVYYCARDGVYYGVYDYWGQGTLVTVSS VL: not shown [29E, listing 1 of 2 here] | 36 | 30 | 28 |  |  |  |  |  |  |  |  |  |  |  |  |  |  |  |  |  | % ETP, TGA 10 min pre-incubation, 10 nM Ab (Relipidated TF): 77%; % ETP, TGA 10 min pre-incubation, 50 nM Ab (Relipidated TF): 72%; % ETP, TGA 10 min pre-incubation, 100 nM Ab (Relipidated TF): 66%; % ttPeak, TGA 10 min pre-incubation, 10 nM Ab (Relipidated TF): 159%; % ttPeak, TGA 10 min pre-incubation, 50 nM Ab (Relipidated TF): 237%; % ttPeak, TGA 10 min pre-incubation, 100 nM Ab (Relipidated TF): 247%; ETP, TGA 10 min pre-incubation, 10 nM Ab (Relipidated TF): 1410 nM·min; ETP, TGA 10 min pre-incubation, 50 nM Ab (Relipidated TF): 1300 nM·min; ETP, TGA 10 min pre-incubation, 100 nM Ab (Relipidated TF): 1200 nM·min; Lag Time, TGA 10 min pre-incubation, 10 nM Ab (Relipidated TF): 9.4 min; Lag Time, TGA 10 min pre-incubation, 50 nM Ab (Relipidated TF): 14.1 min; Lag Time, TGA 10 min pre-incubation, 100 nM Ab (Relipidated TF): 14.7 min; Peak IIa, TGA […] min pre-incubation, 10 nM Ab (Relipidated TF): 98 nM; Peak IIa, TGA […] min pre-incubation, 50 nM Ab (Relipidated TF): 83 nM; Peak IIa, TGA […] min pre-incubation, 100 nM Ab (Relipidated TF): 76 nM; ttPeak, TGA 10 min pre-incubation, 10 nM Ab (Relipidated TF): 18.1 min; ttPeak, TGA 10 min pre-incubation, 50 nM Ab (Relipidated TF): 23.6 min; ttPeak, TGA 10 min pre-incubation, 100 nM Ab (Relipidated TF): 24.3 min
29E (antibody, human IgG1, V domains shown) VH: QVQLVESGGGVVQPGRSLRLSCAASGFTFRSYGMHWVRQAPGKGLEWVAVITYDGINKYYADSVEGRFTISRDNSKNTLYLQMNSLRAEDTAVYYCARDGVYYGVYDYWGQGTLVTVSS VL: not shown [29E, listing 2 of 2 here] |  |  |  | 95 | 71 | 29 | 24 | 48 | 186 | 232 | 1930 | 7 | 14.1 | 17.1 | 235 | 95 | 81 | 11.7 | 22.6 | 26.2 | % ETP, Ab 50 nM [1]: 67%; % ETP, Ab 100 nM [1]: 62%; ETP [nM · min], Ab 50 nM [1]: 1360 nM·min; ETP [nM · min], Ab 100 nM [1]: 1260 nM·min
5G9 (humanized TF8-5G9, CNTO 860) (antibody, V domains shown) VH: QVQLVESGGGVVQPGRSLRLSCKASGFNIKDYYMHWVRQAPGKGLEWIGLIDPENGNTIYDPKFQGRFTISADNSKNTLFLQMDSLRPEDTAVYYCARDNSYYFDYWGQGTPVTVSS VL: DIQMTQSPSSLSASVGDRVTITCKASQDIRKYLNWYQQKPGKAPKLLIYYATSLADGVPSRFSGSGSGTDYTFTISSLQPEDIATYYCLQHGESPYTFGQGTKLEIT [5G9 (humanized TF8-5G9, CNTO 860), listing 1 of 2 here] | 11 | 8 | 8 |  |  |  |  |  |  |  |  |  |  |  |  |  |  |  |  |  | % ttPeak, TGA 10 min pre-incubation, 10 nM Ab (Relipidated TF): 314%; % ttPeak, TGA 10 min pre-incubation, 50 nM Ab (Relipidated TF): 386%; % ttPeak, TGA 10 min pre-incubation, 100 nM Ab (Relipidated TF): 436%; Lag Time, TGA 10 min pre-incubation, 10 nM Ab (Relipidated TF): 19.3 min; Lag Time, TGA 10 min pre-incubation, 50 nM Ab (Relipidated TF): 23.6 min; Lag Time, TGA 10 min pre-incubation, 100 nM Ab (Relipidated TF): 26.7 min; Peak IIa, TGA […] min pre-incubation, 10 nM Ab (Relipidated TF): 30 nM; Peak IIa, TGA […] min pre-incubation, 50 nM Ab (Relipidated TF): 23 nM; Peak IIa, TGA […] min pre-incubation, 100 nM Ab (Relipidated TF): 22 nM; ttPeak, TGA 10 min pre-incubation, 10 nM Ab (Relipidated TF): 29 min; ttPeak, TGA 10 min pre-incubation, 50 nM Ab (Relipidated TF): 34 min; ttPeak, TGA 10 min pre-incubation, 100 nM Ab (Relipidated TF): 37.5 min
5G9 (humanized TF8-5G9, CNTO 860) (antibody, V domains shown) VH: QVQLVESGGGVVQPGRSLRLSCKASGFNIKDYYMHWVRQAPGKGLEWIGLIDPENGNTIYDPKFQGRFTISADNSKNTLFLQMDSLRPEDTAVYYCARDNSYYFDYWGQGTPVTVSS VL: DIQMTQSPSSLSASVGDRVTITCKASQDIRKYLNWYQQKPGKAPKLLIYYATSLADGVPSRFSGSGSGTDYTFTISSLQPEDIATYYCLQHGESPYTFGQGTKLEIT [5G9 (humanized TF8-5G9, CNTO 860), listing 2 of 2 here] |  |  |  | 58 | 24 | 8 | 8 | 135 | 338 | 401 | 1180 | 10.4 | 25.1 | 29.9 | 79 | 28 | 27 | 18.6 | 34.6 | 39.6 | 
25A (antibody, human IgG1, V domains shown) VH: QVQLVQSGAEVKKPGASVKVSCKASGYTFDVYGISWVRQAPGQGLEWMGWIAPYNGNTNYAQKLQGRVTMTTDTSTSTAYMELRSLRSDDTAVYYCARDAGTYSPFGYGMDVWGQGTTVTVSS VL: DIQMTQSPSTLSASVGDRVTITCRASQSISSWLAWYQQKPGKAPKLLIYKASSLESGVPSRFSGSGSGTEFTLTISSLQPDDFATYYCQQFQSLPPFTFGGGTKVEIK |  |  |  |  | 97 | 95 | 95 | 4 | 9 | 9 | 2110 | 5 | 5.2 | 5.2 | 322 | 317 | 317 | 8.2 | 8.6 | 8.6 | ETP [nM · min], Ab 50 nM [1]: 2120 nM·min; ETP [nM · min], Ab 100 nM [1]: 2130 nM·min
1F (antibody, human IgG1, V domains shown) VH: EVQLLESGGGLVQPGGSLRLSCAASGFTFSDYAMGWVRQAPGKGLEWVSTISGSGGLTYYADSVKGRFTISRDNSKNTLYLQMNSLRAEDTAVYYCAKAPYGYYMDVWGKGTTVTVSS VL: not shown [1F, listing 1 of 2 here] | 16 | 8 | 7 |  |  |  |  |  |  |  |  |  |  |  |  |  |  |  |  |  | % ETP, TGA 10 min pre-incubation, 10 nM Ab (Relipidated TF): 41%; % ttPeak, TGA 10 min pre-incubation, 10 nM Ab (Relipidated TF): 220%; % ttPeak, TGA 10 min pre-incubation, 50 nM Ab (Relipidated TF): 433%; % ttPeak, TGA 10 min pre-incubation, 100 nM Ab (Relipidated TF): 483%; ETP, TGA 10 min pre-incubation, 10 nM Ab (Relipidated TF): 742 nM·min; Lag Time, TGA 10 min pre-incubation, 10 nM Ab (Relipidated TF): 13.8 min; Lag Time, TGA 10 min pre-incubation, 50 nM Ab (Relipidated TF): 26.5 min; Lag Time, TGA 10 min pre-incubation, 100 nM Ab (Relipidated TF): 29.5 min; Peak IIa, TGA […] min pre-incubation, 10 nM Ab (Relipidated TF): 44 nM; Peak IIa, TGA […] min pre-incubation, 50 nM Ab (Relipidated TF): 23 nM; Peak IIa, TGA […] min pre-incubation, 100 nM Ab (Relipidated TF): 20 nM; ttPeak, TGA 10 min pre-incubation, 10 nM Ab (Relipidated TF): 22.4 min; ttPeak, TGA 10 min pre-incubation, 50 nM Ab (Relipidated TF): 37.3 min; ttPeak, TGA 10 min pre-incubation, 100 nM Ab (Relipidated TF): 40.8 min
1F (antibody, human IgG1, V domains shown) VH: EVQLLESGGGLVQPGGSLRLSCAASGFTFSDYAMGWVRQAPGKGLEWVSTISGSGGLTYYADSVKGRFTISRDNSKNTLYLQMNSLRAEDTAVYYCAKAPYGYYMDVWGKGTTVTVSS VL: not shown [1F, listing 2 of 2 here] |  |  |  | 86 | 47 | 9 | 8 | 89 | 347 | 419 | 1740 | 8.2 | 25.6 | 31 | 155 | 31 | 25 | 14.9 | 35.3 | 41 | 
39A (antibody, human IgG1, V domains shown) VH: QVQLVQSGAEVKKPGSSVKVSCKASGGTFSSNAIGWVRQAPGQGLEWMGSIIPIIGFANYAQKFQGRVTITADESTSTAYMELSSLRSEDTAVYYCARDSGYYYGASSFGMDVWGQGTTVTVSS VL: EIVMTQSPATLSVSPGERATLSCRASQSVSSNLAWYQQKPGQAPRLLIYGASTRATGIPARFSGSGSGTEFTLTISSLQSEDFAVYYCEQYNNLPLTFGGGTKVEIK |  |  |  | 84 | 37 | 11 | 9 | 135 | 397 | 465 | 1690 | 10.8 | 29.8 | 34.7 | 122 | 36 | 29 | 18.6 | 39.3 | 44.6 | 
TF-011 (antibody, V domains shown) VH: EVQLLESGGGLVQPGGSLRLSCAASGFTFSNYAMSWVRQAPGKGLEWVSSISGSGDYTYYTDSVKGRFTISRDNSKNTLYLQMNSLRAEDTAVYYCARSPWGYYLDSWGQGTLVTVSS VL: DIQMTQSPPSLSASAGDRVTITCRASQGISSRLAWYQQKPEKAPKSLIYAASSLQSGVPSRFSGSGSGTDFTLTISSLQPEDFATYYCQQYNSYPYTFGQGTKLEIK [TF-011, listing 1 of 2 here] |  | 10 |  |  |  |  |  |  |  |  |  |  |  |  |  |  |  |  |  |  | 
TF-011 (antibody, V domains shown) VH: EVQLLESGGGLVQPGGSLRLSCAASGFTFSNYAMSWVRQAPGKGLEWVSSISGSGDYTYYTDSVKGRFTISRDNSKNTLYLQMNSLRAEDTAVYYCARSPWGYYLDSWGQGTLVTVSS VL: DIQMTQSPPSLSASAGDRVTITCRASQGISSRLAWYQQKPEKAPKSLIYAASSLQSGVPSRFSGSGSGTDFTLTISSLQPEDFATYYCQQYNSYPYTFGQGTKLEIK [TF-011, listing 2 of 2 here] |  |  |  | 85 | 47 | 12 |  | 86 | 284 | 353 | 1710 | 8 | 21.3 |  | 156 | 39 | 30 | 14.7 | 30.3 | 35.8 | 
